Data taken from paper doi:10.1101/2023.03.12.532276 (bioRxiv, 2023).

Target: the molecule itself
Test: SAXS with online size exclusion

B1: ELF3 PrLD Q7 (prion-like domain of EARLY FLOWERING 3, residues 388-625, 7 glutamines, ecotype Columbia) (domain or fragment)
chain: LLPSEFLVKPPLPHVVVKQRGDSEKTDQHKMESSAENVVGRLSNQGHHQQSNYMPFANNPPASPAPNGYCFPPQPPPSGNHQQWLIPVMSPSEGLIYKPHPGMAHTGHYGGYYGHYMPTPMVMPQYHPGMGFPPPGNGYFPPYGMMPTIMNPYCSSQQQQQQQPNEQMNQFGHPGNLQNTQQQQQRSDNEPAPQQQQQPTKSYPRARKSRQGSTGSSPSGPQGISGSKSFRPFAAVDE
Does B1 bind?
Result: binds
